Measurements taken from patent US20040058357.

Target: PKCβII (mouse brain homogenates), P68404
Sequence (P68404 other isoform, or with tags, fused parts or gaps): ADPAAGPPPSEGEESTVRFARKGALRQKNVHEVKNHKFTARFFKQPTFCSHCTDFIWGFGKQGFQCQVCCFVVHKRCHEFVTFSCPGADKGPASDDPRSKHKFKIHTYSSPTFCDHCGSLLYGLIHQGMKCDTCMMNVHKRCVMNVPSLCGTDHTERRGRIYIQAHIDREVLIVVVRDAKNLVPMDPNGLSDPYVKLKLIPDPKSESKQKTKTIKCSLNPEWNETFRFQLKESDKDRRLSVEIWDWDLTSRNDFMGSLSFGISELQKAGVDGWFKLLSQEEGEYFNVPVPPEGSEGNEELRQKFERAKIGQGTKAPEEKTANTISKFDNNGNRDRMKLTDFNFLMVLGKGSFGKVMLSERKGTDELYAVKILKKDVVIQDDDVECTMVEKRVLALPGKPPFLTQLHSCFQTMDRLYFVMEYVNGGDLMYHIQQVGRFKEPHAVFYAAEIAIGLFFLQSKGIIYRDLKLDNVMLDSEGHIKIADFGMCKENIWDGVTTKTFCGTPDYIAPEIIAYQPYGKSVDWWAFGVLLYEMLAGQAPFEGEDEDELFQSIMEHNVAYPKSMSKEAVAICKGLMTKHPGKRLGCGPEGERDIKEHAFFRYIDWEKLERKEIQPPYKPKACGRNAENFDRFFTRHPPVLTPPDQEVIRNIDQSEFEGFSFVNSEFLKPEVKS

B1: AChE-R overexpressed in AChE-R transgenic mice (protein)
chain: EGREDAELLVTVRGGRLRGIRLKTPGGPVSAFLGIPFAEPPMGPRRFLPPEPKQPWSGVVDATTFQSVCYQYVDTLYPGFEGTEMWNPNRELSEDCLYLNVWTPYPRPTSPTPVLVWIYGGGFYSGASSLDVYDGRFLVQAERTVLVSMNYRVGAFGFLALPGSREAPGNVGLLDQRLALQWVQENVAAFGGDPTSVTLFGESAGAASVGMHLLSPPSRGLFHRAVLQSGAPNGPWATVGMGEARRRATQLAHLVGCPPGGTGGNDTELVACLRTRPAQVLVNHEWHVLPQESVFRFSFVPVVDGDFLSDTPEALINAGDFHGLQVLVGVVKDEGSYFLVYGAPGFSKDNESLISRAEFLAGVRVGVPQVSDLAAEAVVLHYTDWLHPEDPARLREALSDVVGDHNVVCPVAQLAGRLAAQGARVYAYVFEHRASTLSWPLWMGVPHGYEIEFIFGIPLDPSRNYTAEEKIFAQRLMRYWANFARTGDPNEPRDPKAPQWPPYTAGAQQYVSLDLRPLEVRRGLRAQACAFWNRFLPKLLSATGMQGPAGSAGRRGVGARQCNPSLLPLASE
- PKC activity in brain homogenates (PKC assay kit, Upstate Biotechnology): Note the elevation of PKC activity in the different brain regions in the AChE-R transgenics as compered to FVB/N controls
